What all share (experiment): purified protein
Common to all, as to conditions: acylates Ser70

In series [1] the test system is C[C@@H](O)[C@H]1C(=O)N2C(C(=O)O)=C(S[C@@H]3CN[C@H](C(=O)Nc4cccc(C(=O)O)c4)C3)[C@H](C)[C@H]12. The format is biochemical, Klebsiella pneumoniae.
For series [2], the system named is C[C@@H](O)[C@H]1C(=O)N2C(C(=O)O)=C(S[C@@H]3CN[C@H](C(=O)N(C)C)C3)[C@H](C)[C@H]12. The format is biochemical, Klebsiella pneumoniae.
Series [3] has as its system CC(=O)OCC1=C(C(=O)O)N2C(=O)[C@@H](NC(=O)Cc3cccs3)[C@H]2SC1.
Series [4] relates to C[C@@H](O)[C@H]1C(=O)N2C(C(=O)O)=C(SCCN=CN)C[C@H]12.

With KPC-2 (Klebsiella pneumoniae), the Km (commonly the concentration of substrate that gives half-maximal velocity) in series [1] turned out to be 8.6 µM; in series [2], 7.1 µM; in series [3] it was 42 µM; in series [4], 72 µM. Further, the kcat – broadly, the number of substrate molecules converted per active site and unit of time at saturation – stood at 8 s⁻¹ in series [1], 21 s⁻¹ in series [2], 110 s⁻¹ in series [3] and 22 s⁻¹ in series [4]. Also, the catalytic efficiency (kcat/Km) – broadly, the second-order rate constant that governs catalysis at low substrate concentration – in series [1] is 920000 M⁻¹ s⁻¹; in series [2], 3e+06 M⁻¹ s⁻¹; in series [4] it was 310000 M⁻¹ s⁻¹.

These data come from paper PMC10080687, “Tautomer-Specific Deacylation and Ω-Loop Flexibility Explain the Carbapenem-Hydrolyzing Broad-Spectrum Activity of the KPC-2 β-Lactamase” (Journal of the American Chemical Society, 2023).
